Measured values reported in article PMC6957267 (Molecular cancer therapeutics, 2012).

Molecular target: Mature human IGF-II (insulin-like growth factor II) (human)
Assay: ELISA

B1: Fab m610.27 (Fab, V domains shown)
VH: QVQLVQSGAEVKKPGASVKVSCKASGYTFTSYYMHWVRQAPGQGLEWMGIINPSGGSTSYAQKFQGRVTMTRDTSTSTVYMELSRLRSDDTAVYYCARDVQWLAYGMDVWGQGTTVTVSS
VL: DIQMTQSPSSLSASVGDRVTITCRASQSISSYLNWYQQKPGRAPDLLINAASSLQSGVPSRFSGSGSGTDFTLTISSLQPEDFATYFCQQSYSLPFTFGGGTKVEIK
EC50: 5 nM

B2: m610 (human mAb to IGF-II), Fab (Fab, V domains shown)
VH: QVQLVQSGAEVKKPGASVKVSCKASGYTFTSYYMHWVRQAPGQGLEWMGIINPSGGSTSYAQKFQGRVTMTRDTSTSTVYMELSRLRSDDTAVYYCARDVQWLAYGMDVWGQGTTVTVSS
VL: not shown
EC50: 20 nM
